This series can be described thus: yeast display, Sf9 membrane polyspecificity reagent, FACS + sequencing; frameworks hold sequencing errors. In a few lines: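 Polyreactivity labels are assigned by the sorting gate from which each nanobody was recovered. The gates were low and high (top ~1%), set on anti-HA fluorescence for expression and streptavidin fluorescence for reagent binding. Before sorting, galactose-induced (36–48 hours) yeast display cells were stained for 1 hour at 4 °C with 10% biotinylated, detergent-solubilized Sf9 membrane reagent.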
For the sequence “QVQLVESGGGLVQAGGSLRLSCAAYGSTFWANAMGWYRQAPGKERELVAAIRGTGGSTYADSVKGRFTISRDNAKNTVYLQMNSLKPEDTAVYYCNAKGRGWTAQYDYWGQGTQVTVSS”, the “polyreactivity (PSR sort gate)” value is “low polyreactivity”. In the case of “QVQLVESGGGLVQAGGSLRLSCAAYGSTLDGNAMGWYRQAPGKERELVAGLDTGGSTYYADSVKGRFTISRDNAKYTVYLQLIRLKPEDTAVYDCAATDREDYDYWGQGTQVTVSS”, the “polyreactivity (PSR sort gate)” value was “low polyreactivity”.

In the case of “QVQLVESGGGLVQAGGSLRLSCAAYGSTLSPYTMGWYRQAPGKERELVAAITQSGGSTYYADSVKGRFTISRDKAKYTVYLQMNSLKPEDTAVYYCNRDYNADYDWGQGTQVTVSS”, the “polyreactivity (PSR sort gate)” value is “high polyreactivity”.

Take “QVQLVESGGGLVQAGGSLRLSCAAYGYIFLRNAMGWYRQAPGKERELVAAIRRTGGSTYYADSVKGRFTISRDNAKNTVYLQMNSLKPEDTAVYYCAKRSYTGYEYWGQGTQVTVSS”: the “polyreactivity (PSR sort gate)” value was “low polyreactivity”. To “QVQLVESGGGLVQAGGSLRLSCAAYRFIFATNTMGCYRQAPGKETELVAASSTYYADSVNGRFTISRDNAKNTVYLQMNSLKPEDNAVYYCNADRDSYIGFVDWAGEYWGQGTQVTVSS” belongs “low polyreactivity”; to “QVQLVESGGGLVQAGGSLRLSCAAYVFIFYVYAMGWYRQAHGKERELVAAISGGGDSTYYADSVKGRFTISRDNAKNTVYLQMNSLKPEDTAVYYCATRRYPEVVNGEYGYWGQGTQVTVSS”, “low polyreactivity”.

For the sequence “QVQLVESGGGLVQAGGSLRLSCACSGHTFSSYAIGWYRQAPGKERELVAAISVSATRTYYADSVKGRFTISRDNEKNTVYLQMNSLKPEDTAVYYFAARPVQFTYGYWGLGTQVTVSS”, the “polyreactivity (PSR sort gate)” value is recorded as “high polyreactivity”. To “QVQLVESGGGLVQAGGSLRLSCADSGFIFVPYAMGWYRQAPGKERELVATITGRGDSTYYADSVKWRFTISRDNALNTVYLQMNSLKTEDTSLFYCAVDPIRLWAYDYWGQGTQVTVSS” belongs “low polyreactivity”; to “QVQLVESGGGLVQAGGSLRLSCADSGFTFRYNAIGSYRQAPGKERELVARISSTGGGTSYADSVKGRFTISRDNAKNTVYLQMNSLKPEDTAVYYCNKRSWGYGRGLPDSDYWGQGTQVTVSS”, “low polyreactivity”; to “QVQLVESGGGLVQAGGSLRLSCADSGGIFLSYGMGWYRQAPGKERELVAAISRNDGRTYYADSVKGRFTISRDNAKNTVYLQMNSLKPEDTAVYYCAADPEYYYYIYVYVQYDYWGQGTQVTVSS”, “low polyreactivity”.

Consider “QVQLVESGGGLVQAGGSLRLSCADSGITIVWYAIGWYRQAPGKERELVAAISRGGGSTYYADSVKGRFTISRDNAKNTVYLQMNSLKPEDTAVYYCAASGGYTFDWLEFDYWGQGTQVTVSS”, for which the “polyreactivity (PSR sort gate)” value is given as “low polyreactivity”. The result for “QVQLVESGGGLVQAGGSLRLSCADSGLTFYDYAMGWYRQAPGKERELVADIDFNGGSTSYADSVKGRFTISRDNAKNTVYLQMNSLKPEDTAVYYCNTRDRGDVVTGLDYWGQGTQVTVSS” reads “low polyreactivity”. The result for “QVQLVESGGGLVQAGGSLRLSCADSGNIIWGNAIGWYRQAPGKERELVAAISRRSGSTYYADSVKGRFTISRDNAKNTVYLQMNSLKPEDTAVYYCNTAGRVGTYDYWGQGTQVTVSS” reads “high polyreactivity”; that for “QVQLVESGGGLVQAGGSLRLSCADSGNTFYGYAMGWSRQSPGTERELVASITLSGDSTYYADSVKGRFTISRDNAKNTVYLQMNSLKPEDTAVYYCAGVYTYPLGYYHYTYDYWGQGTQVTVSS”, “low polyreactivity”. To “QVQLVESGGGLVQAGGSLRLSCADSGRIFLTNAMGWYRQAPGKERELGATITSGGSTNYADSVKGRFTISRDNAKNTVYLQMNSLKPVDTAVYDCAADWEFGFDYWGQGTQVTVSS” belongs “low polyreactivity”. With “QVQLVESGGGLVQAGGSLRLSCADSGRIFVAYAMGWYRQAPGKERELFADITWSGDITYYADSVKGRFTISRDNAKNTVYLQMNSLKPEDTAVYYCAADYHRRRTDYDYWGQVTQVTVSS”, the “polyreactivity (PSR sort gate)” value is on record as “low polyreactivity”. The result for “QVQLVESGGGLVQAGGSLRLSCADSGRIFVLYAMGWYRQAPGKERELVAAISRSSTSTYYADSVKGRFTISRDNAKNTGYLQMNSLKPEDTAVYYCAARGRYAYPRYGYYPVNYWGQGTQVTVSS” reads “high polyreactivity”; that for “QVQLVESGGGLVQAGGSLRLSCADSGRIFWTNAMVWYRQAPGKERELVAAISYNGASTFYADSVKGRFTISRDNAKNTVSLQMNSLKPEDTAVYYCNAYSSRYRYNYWGQGTQVTVSS”, “high polyreactivity”; that for “QVQLVESGGGLVQAGGSLRLSCADSGRILTFNAMGWYRQAPGKERELVASISNGGSTNYADSVKGRFTISRDNAKNTVYLQMNSLKPEDTAVYYCDADWRQGMWYGYYYWGQGTQVTVSS”, “low polyreactivity”. On to “QVQLVESGGGLVQAGGSLRLSCADSGRTFYQNAKGWYRQAPGKEREFVAAISWSSGSTYYADSVKGRFTISRDYAKNTVYLQMNSLKPEDTAVYYCAAYTSFPYIWYGYWGQGTQVTVSS”, for which the “polyreactivity (PSR sort gate)” value is reported as “high polyreactivity”. On to “QVQLVESGGGLVQAGGSLRLSCADSGRTIPFYAMGWYRQAPGKERELVAAISSSAGRTYYADSVKGRFTISRDNAKNTVSLQMNSLKPEDTAVYYCAARLYGRYRYDYWGQGTQVTVSS”, for which the “polyreactivity (PSR sort gate)” value is given as “low polyreactivity”. The result for “QVQLVESGGGLVQAGGSLRLSCADSGSIFEVYAMGWYRQAAGKERELVAAINYTGGSTYYADSVKGRFTISRDNAKITVYLQMNSLKPEDTAVYYCARDTSGNGTRYDYWGQGTQVTVSS” reads “low polyreactivity”; that for “QVQLVESGGGLVQAGGSLRLSCADSGSIFLPYAMGCYRKAPGKERELVAAITWGGDSTYADSVKGRFTISRDNAKNTVYLQMNSQKPEDTAVYYCAAGAGFESDYWGQGTQVTVSS”, “low polyreactivity”; that for “QVQLVESGGGLVQAGGSLRLSCADSGSIFQYNTMGWYRQAPGKERELVADINGRGGSTYYADSVKGRFTISRDNAKNTVYLQMNSLKPEDTAVYYCAVEGVSTYLWTSYGYWGQGTQVTVSS”, “low polyreactivity”. Turning to “QVQLVESGGGLVQAGGSLRLSCADSGSIFYRYAMGWYRQAPGKERELGAAISQSGGSTYYADSVKGRFTISRDNAKNTVYLQMNSLKPEDTAVYYCQLIRRGHDYWGQGTQVTVSS”, the “polyreactivity (PSR sort gate)” value was “high polyreactivity”. The result for “QVQLVESGGGLVQAGGSLRLSCADSGSIGLYAMGWYRQAPGKETELVAVISRNGGSTYYADSVKGRFTISRDNAKNTVYLQMNSLKPEDTAVYYCAKRRLERGTGDYWGQGTQVTVSS” reads “high polyreactivity”. The result for “QVQLVESGGGLVQAGGSLRLSCADSGSIQYYAMGWYRQAPGKERELVAAITWSGVSTSYADSVKGRFTISRDNAKNTVYLQMNRLKPEDTAVYYCNKDPGTLYGDLDSWGQGTQVTVSS” reads “low polyreactivity”; that for “QVQLVESGGGLVQAGGSLRLSCADSGSTFDDNAMGWYRQAPGKDRELVASITYRGGSTYYADSVKGRFTISRDNAKNTVYLQMNSLKPEDTAVYYCAKGHYFKYDYWGQGTQVTVSS”, “low polyreactivity”; that for “QVQLVESGGGLVQAGGSLRLSCADSGSTFEANAMGWYRQAPGKERELVAAISSGGRTYYADSEKGRFTISRDNAKNTVYLKRNSLKPEDTAVYYCAAYVRRGFDWGQGTQVTVSS”, “high polyreactivity”. To “QVQLVESGGGLVQAGGSLRLSCADSGSTFRRKVMGWYRQAPGKERELVASIRSGGTTNYADSVKGRFTISRDNAKNTVYLQMNSLKPEDTAVYYCAAARSRGYYRASAEVLYGYWGQGTQVTVSS” belongs “high polyreactivity”. For the sequence “QVQLVESGGGLVQAGGSLRLSCADSGSTFSPDAMGWYIQAPGKERALVAAIRYSGTSTYYADSVKGRFTISRDNAKKTVYLQMNSLKPEDTAVYYCNTVFKYQGVRPYGYWGQGTQVTVSS”, the “polyreactivity (PSR sort gate)” value was “high polyreactivity”. To “QVQLVESGGGLVQAGGSLRLSCADSGSTFWFYTMGWYRQAPGKERELVATITSGGSTNYADSVKGRFTISRDNAKNTVYLQMNSLKPEDTAVYYCAASSVLTNHDYWGQGTQVTVSS” belongs “low polyreactivity”; to “QVQLVESGGGLVQAGGSLRLSCADSGYTFSPNAMGWYRQAPGKELELVAAISSAVSTDYADSVKGRFTISRDNAKNTVYLQMNSLKPEDTAVYYCAADDQYRVTLGYDYWGQGTQVTVSS”, “low polyreactivity”. The result for “QVQLVESGGGLVQAGGSLRLSCADSGYTFVYNAMGWYRQPPGKEREFVAAITWSGTSTRYADSVKGRFTISRDNAKNTVYLQMNSLKPEDTAVYYCAALGSGVPRYYYWGQGTQVTVSS” reads “high polyreactivity”. Turning to “QVQLVESGGGLVQAGGSLRLSCAFYYGMGWYRQAPGKERELVAAITLGGGSTYYADSVKGRFTISRDNAKNTVYLQMNSLKPEDTAVYYCNVTDVTEPSLIDGYYWGQGTQVTVSS”, the “polyreactivity (PSR sort gate)” value is on record as “low polyreactivity”. The result for “QVQLVESGGGLVQAGGSLRLSCAGSGATYERYAMGWSRPAPGKERALVAASNKRGGNTYYADSVKGRFTISRDNAKKTVYLQMNSLKPEDTAVYYCAADHLDRTEFPYYYWGQGTQVTVSS” reads “high polyreactivity”; that for “QVQLVESGGGLVQAGGSLRLSCAGSGHIFPYNAMGWYRQGPGKEREFVAAISFRGGSRYYADSEKGRFTISRDNAKNTVYLQMNSLKPEDTAVYYCAKRSYPWGQGTQVTVSS”, “low polyreactivity”; that for “QVQLVESGGGLVQAGGSLRLSCAGSGIIFRGYDMGWYRQAPGKEMELVAAITWRGGSTYYADSVKGRFTISRDNAKNTVYLQMNSLKPEDTAVYYCAAVRKHSWFRHMDYWGQGTLVTVSS”, “high polyreactivity”.

As for “QVQLVESGGGLVQAGGSLRLSCAGSGLIFRIYAMGWYTQAPGKEREFVAAIRWRGGSTYYADSVKGRFTISRDNAKNTVYLQMNSLKPEDSAVYYCAVRYCPYRPRLDYWGQGTQVTVSS”, the “polyreactivity (PSR sort gate)” value is “high polyreactivity”. The result for “QVQLVESGGGLVQAGGSLRLSCAGSGRIFFWYVMGWYRQAPGKERELVAAISSGGRTYYADSVKGRFTISRDNAKNTVYLQMNSLKPEDTAVYYCAAVRRYLKAAYGYWGQGTQVTVSS” reads “low polyreactivity”; that for “QVQLVESGGGLVQAGGSLRLSCAGSGRIFRTYAMGWFRQAPGKEGEFVAGISRGGSTDYADSVKGRFTISRDNEKNTVYLQMNSLKPEDSAVYYCAAASLRYYSPRVRYPYYYWGQGTQVTVSS”, “high polyreactivity”.

Values taken from the nanobody polyreactivity screen of Harvey et al. (2022).
